Data: doi:10.1101/2020.01.07.897124 (bioRxiv, 2020)
Where two headings read alike, the source gives them in different places.

Tests used:
cryo-EM structure [1] = biological target: the molecule itself; test: cryo-EM structure
cryo-EM structure [2] = biological target: the molecule itself; test: cryo-EM structure; remark: listed apart in the source

Row | Protein | stoichiometry N (cryo-EM structure [1]) | stoichiometry N (cryo-EM structure [2])
1 | human SOAT1-dimer (66-550), purified, tags removed (domain or fragment, UniProt P35610 66-550, looked up) MKEVGSHFDDFVTNLIEKSASLDNGGCALTTFSVLEGEKNNHRAKDLRAPPEQGKIFIARRSLLDELLEVDHIRTIYHMFIALLILFILSTLVVDYIDEGRLVLEFSLLSYAFGKFPTVVWTWWIMFLSTFSVPYFLFQHWATGYSKSSHPLIRSLFHGFLFMIFQIGVLGFGPTYVVLAYTLPPASRFIIIFEQIRFVMKAHSFVRENVPRVLNSAKEKSSTVPIPTVNQYLYFLFAPTLIYRDSYPRNPTVRWGYVAMKFAQVFGCFFYVYYIFERLCAPLFRNIKQEPFSARVLVLCVFNSILPGVLILFLTFFAFLHCWLNAFAEMLRFGDRMFYKDWWNSTSYSNYYRTWNVVVHDWLYYYAYKDFLWFFSKRFKSAAMLAVFAVSAVVHEYALAVCLSFFYPVLFVLFMFFGMAFNFIVNDSRKKPIWNVLMWTSLFLGNGVLLCFYSQEWYARQHCPLKNPTFLDYVRPRSWTCRYVF | 2 | 
2 | human SOAT1 full-length (1-550), purified, tags removed (enzyme, UniProt P35610 1-550, looked up) MVGEEKMSLRNRLSKSRENPEEDEDQRNPAKESLETPSNGRIDIKQLIAKKIKLTAEAEELKPFFMKEVGSHFDDFVTNLIEKSASLDNGGCALTTFSVLEGEKNNHRAKDLRAPPEQGKIFIARRSLLDELLEVDHIRTIYHMFIALLILFILSTLVVDYIDEGRLVLEFSLLSYAFGKFPTVVWTWWIMFLSTFSVPYFLFQHWATGYSKSSHPLIRSLFHGFLFMIFQIGVLGFGPTYVVLAYTLPPASRFIIIFEQIRFVMKAHSFVRENVPRVLNSAKEKSSTVPIPTVNQYLYFLFAPTLIYRDSYPRNPTVRWGYVAMKFAQVFGCFFYVYYIFERLCAPLFRNIKQEPFSARVLVLCVFNSILPGVLILFLTFFAFLHCWLNAFAEMLRFGDRMFYKDWWNSTSYSNYYRTWNVVVHDWLYYYAYKDFLWFFSKRFKSAAMLAVFAVSAVVHEYALAVCLSFFYPVLFVLFMFFGMAFNFIVNDSRKKPIWNVLMWTSLFLGNGVLLCFYSQEWYARQHCPLKNPTFLDYVRPRSWTCRYVF |  | 4
